Substrate in the data set: O=[N+]([O-])c1ccc(O[C@@H]2O[C@H](CO)[C@@H](O)[C@H](O)[C@H]2O)cc1
In words: purified protein. Particulars: no added glucose.

B1: B8CYA8 (β-glucosidase from Halothermothrix orenii) (Halothermothrix orenii H 168) (protein)
chain: MAKIIFPEDFIWGAATSSYQIEGAFNEDGKGESIWDRFSHTPGKIENGDTGDIACDHYHLYREDIELMKEIGIRSYRFSTSWPRILPEGKGRVNQKGLDFYKRLVDNLLKANIRPMITLYHWDLPQALQDKGGWTNRDTAKYFAEYARLMFEEFNGLVDLWVTHNEPWVVAFEGHAFGNHAPGTKDFKTALQVAHHLLLSHGMAVDIFREEDLPGEIGITLNLTPAYPAGDSEKDVKAASLLDDYINAWFLSPVFKGSYPEELHHIYEQNLGAFTTQPGDMDIISRDIDFLGINYYSRMVVRHKPGDNLFNAEVVKMEDRPSTEMGWEIYPQGLYDILVRVNKEYTDKPLYITENGAAFDDKLTEEGKIHDEKRINYLGDHFKQAYKALKDGVPLRGYYVWSLMDNFEWAYGYSKRFGLIYVDYENGNRRFLKDSALWYREVIEKGQVEAN
For the protein B1, the Km (as a rule, the substrate concentration at which the rate is half of its maximum) is 1800 ± 100 µM and the kcat (as a rule, the maximal rate divided by the concentration of active sites) amounted to 339.0 ± 28.3 s⁻¹.

(Values after doi:10.1101/844506v1.)
